This is an account of results in US6867008 (NEW ENGLAND MEDICAL CENTER HOSPITALS, dated 2005).

One assay deals with T1, mERβ1-622/GalBD (mouse, UniProt P04386 1-147; O08537 46-252).
T1 construct: about the first 207 codons of the short variant ORF (my reading)
Put plainly: yeast two-hybrid, HIS and β-galactosidase reporters.

The target of a further assay is T2, mERβ1-516/GalBD (mouse, UniProt P04386 1-147; O08537 46-217).
T2 construct: Expression in Y190 confirmed by Western blot
The description is as above.

Assay [1] deals with T3, hERα/BD (human estrogen receptor alpha fused to the Gal4 DNA binding domain) (human, UniProt P04386 1-147; P03372 1-595).
T3 construct: also called ERα/GalBD; hERα/GalBD
Put plainly: yeast two-hybrid. An excerpt: Screening of the ovine library yielded clone EC1. […] Yeast strain Y190 was transformed with mERβ/BD in combination with EC1/AD and GalAD respectively and plated on Sc-His (synthetic complete medium, minus histidine) and YPD (yeast extract, peptone, dextrose) plates (FIG. 1A). […] Yeast strain Y190 was also transformed with human ER alpha (hERα)/BD in combination with EC1/AD, hERα/BD and Trip 1/AD and plated on Sc-His and YPD plates. Positive interaction of hERα/BD with […] and Trip 1/GalAD was seen only in the presence of estrogen. Colony lift β-Galactosidase assays were also performed with yeasts from the YPD plate in both FIG. 1A and 1B. TIF2 and TRIP1 homologs were found previously by screening a human heart library with mERβ as bait. […] This implies a new function for ER beta that may be separated from its estrogen binding function.

Assay [2] concerns the target T4, [35S]hERα (in vitro translated human estrogen receptor alpha) (human, UniProt P03372 1-595, [35S]methionine labelled).
T4 construct: also called [^35S] labeled hERα; ER alpha
T4 sequence (looked up): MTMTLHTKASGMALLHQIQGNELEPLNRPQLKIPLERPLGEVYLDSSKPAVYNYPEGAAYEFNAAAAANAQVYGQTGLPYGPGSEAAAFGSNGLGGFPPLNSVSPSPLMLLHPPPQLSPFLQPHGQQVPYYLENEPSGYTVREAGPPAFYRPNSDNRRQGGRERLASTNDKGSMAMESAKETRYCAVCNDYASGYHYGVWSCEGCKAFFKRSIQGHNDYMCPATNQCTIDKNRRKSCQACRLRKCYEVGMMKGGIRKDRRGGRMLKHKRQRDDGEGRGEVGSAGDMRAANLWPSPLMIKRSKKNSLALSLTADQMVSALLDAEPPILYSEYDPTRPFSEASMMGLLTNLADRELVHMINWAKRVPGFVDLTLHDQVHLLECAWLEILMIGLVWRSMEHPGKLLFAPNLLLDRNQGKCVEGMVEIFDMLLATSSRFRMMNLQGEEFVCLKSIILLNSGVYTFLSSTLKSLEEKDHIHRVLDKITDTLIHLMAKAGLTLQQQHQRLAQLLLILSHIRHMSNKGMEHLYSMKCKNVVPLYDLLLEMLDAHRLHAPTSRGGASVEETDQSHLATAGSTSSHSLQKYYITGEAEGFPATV
Put plainly: GST pull-down, SDS-PAGE and autoradiography. How it is done:
Recombinant proteins were incubated at 4° in suspension buffer (20 mM Tris pH7.4, 137 mM NaCl, 2 mM EDTA pH7.4, 1% TritonX-100, 10% Glycerol, 25 mM β-glycerolphosphate, 1 mM Na vanadate, […], 1 mM PMSF) with either one of the GST fusion proteins immobilized on glutathione-Sepharose beads for 1 hour. Beads were then washed three times in suspension buffer, boiled 5 minutes in SDS sample buffer, and associated proteins resolved by SDS-PAGE. Labeled protein bands in gels were then visualized by autoradiography.
[^35S] labeled mERβ was incubated with GST-beads (Lane 2) and GST-EC1 beads (Lane 3) followed by SDS-PAGE and autoradiography. […] In the complementary experiment (FIG. 4B), [^35S]-labeled hsMAD2 was incubated with GST beads (Lane 2) and GST-mERP beads (Lane 3) followed by SDS-PAGE and autoradiography. […] MAD2 input (FIG. 4B). GST-fusion protein interaction studies were also done with hERα. [^35S] labeled hERα was incubated with GST-mERβ (Lane 2, positive control), GST-beads (Lane 3) and GST-EC1 beads followed by SDS-PAGE and autoradiography.

B1: EC1/AD (ovine clone EC1, MAD2 homolog, fused to the Gal4 activating domain, vector pGAD10) (other, not shown: large carriers)
chain: REQGITLRGSAEIVAEFFSFGINSILYQRGIYPSETFTRVQKYGLTLLVTTDPELIKYLNNVVDQLKEWLYKCSVQKLVVVISNIESGEVLERWQFDIECDKTAKDDSAPREKSQKAIQDEIRSVIRQITATVTFLPLLEVSCSFDLLIYTDKDLVVPEKWEESGPQFITNSEEVRLRSFTTTIHKVNSMVAYKIPVHD
notes: Library clone from ovine pulmonary artery endothelial cells; also called EC1/GalAD
Turning to B1, the values for the binding result (in the assay with mERβ1-622/GalBD; with mERβ1-516/GalBD; in assay [1]) were “binds”, “no binding” and “no binding”, respectively.

B2: GST-EC1 (other)
chain: REQGITLRGSAEIVAEFFSFGINSILYQRGIYPSETFTRVQKYGLTLLVTTDPELIKYLNNVVDQLKEWLYKCSVQKLVVVISNIESGEVLERWQFDIECDKTAKDDSAPREKSQKAIQDEIRSVIRQITATVTFLPLLEVSCSFDLLIYTDKDLVVPEKWEESGPQFITNSEEVRLRSFTTTIHKVNSMVAYKIPVHD
notes: Immobilised on glutathione-Sepharose beads; also called GST-MAD2 clone; GST MAD2; not shown: glutathione S-transferase of vector pGEX-4T-1
Regarding B2, the binding result in assay [2] is on record as “no binding”.
